Target: Protein A domain D (Staphylococcus aureus)
Experiment: BLI

B1: n501 T77A (antibody)
chain: EVQLVESGGGLVQPGGSLRLSCAASDFTFRNYEMSWVRQAPGKGLEWVSSISGSGGSTYYAHSLKGRFAISRDNSKNTLYLQMNSLRAEDTAIYYCARLRDGFNNGFDYWGQGTLVTVSS
Q: For B1, which Kd is on record?
A: 324 nM

B2: n501 N92A (antibody)
chain: EVQLVESGGGLVQPGGSLRLSCAASDFTFRNYEMSWVRQAPGKGLEWVSSISGSGGSTYYAHSLKGRFTISRDNSKNTLYLQMASLRAEDTAIYYCARLRDGFNNGFDYWGQGTLVTVSS
Q: How did the Kd turn out when B2 was run?
A: 328 nM
